One assay deals with PC12 cells. The experiment in a line: PC12 bioassay of neurite outgrowth with astrocyte-conditioned medium. In kind it is cell-based. To be noted: 24 h. As to the method: To evaluate neurite outgrowth, PC12 cells were plated at a low density (2×10^4 cells per cm^2) onto poly-D lysine-coated 24-well plates. After 24 h, the adherent PC12 cells were washed with PBS and incubated with conditioned medium derived from either untreated or Ganoderma lucidum-treated astrocyte cultures to monitor neurite outgrowth (using a low serum condition in DMEM containing 1% FBS). Eight to ten images per group were photographed under light microscopy, and the percentage of cells with neurites that exceeded (the percentage of cells with neurites exceeding) the diameter of cell body was analyzed by examining 100-200 cells per image. Images were analyzed by an operator blinded to the experimental conditions. For the preparation of ACM, astrocytes were treated with Ganoderma lucidum for 24 hours and were washed with PBS and fed with low serum medium (without Ganoderma lucidum). After 24 hours, the medium was centrifuged at 200×g for 20 mins to remove cell debris, and the supernatant was collected as the ACM and used immediately. Murine NGF 100 ng/ml (Promega Biotech Co., Ltd, USA) was used as positive control.

The subject of a further assay is NGF. The experiment in a line: NGF expression and release in primary astrocyte cultures (RT-PCR, real time PCR, western blot). The assay is classed as cell-based, C57BL/6J mice. To be noted: primary astrocytes, 6 hours. As to the method:
Astrocyte-enriched cultures were prepared from post-natal one day-old C57BL/6J mice obtained from the Animal Center at the National Yang Ming University, Taiwan. Briefly, cortical tissue was digested with trypsin. The resultant dissociated cells were suspended in DMEM containing 10% FBS and incubated in 100-mm culture dishes. After 3 days in culture, cells were re-fed with fresh 10% FBS/DMEM and maintained at 37° C. for an additional 3 days. The cells were dissociated with trypsin, suspended in 10% FBS/DMEM and incubated in a 10-cm dish for 7-8 days prior to use. Astrocytes prepared by this method consisted of approximately 90-95% astrocytes as determined by immunochemical staining with an antibody against glial fibrillary acidic protein (GFAP), a specific marker for astrocytes. Neural stem cell cultures were prepared from 1 day-old C57BL/6J mice. Cells obtained by trypsinization of cortical tissue were suspended in 100 ml DMEM/F12 medium (2×10^5 cells/ml) containing 1% N2, 20 ng/ml EGF, 20 ng/ml bFGF and […] BSA in 1 L roller bottles for 7 days for the formation of neurospheres. The neurospheres were examined with an antibody against nestin, a specific marker for neural stem cells. […]
RNA was prepared using RNA-Bee™ RNA isolation reagent (Tel-test, Friendswood, Tex.). […] Relative gene expression levels were calculated with the 2^−ΔΔCT method. […]
(In qPCR the cycle at which signal appears reflects the starting amount.)

Assay [1] relates to mHtt74Q-expressing PC12 cell. The experiment in a line: Autophagy in HD cell model: MDC staining and western blot of LC3-II. The assay is classed as cell-based. As to the method:
Mammalian expression vectors comprising EGFP (pEGFP-C1, Clontech) fused at its C terminus with an HD gene exon 1 fragment with 74 polyglutamine repeats (mHtt-74Q) was a gift from Dr. David C. Rubinsztein's laboratory. The PC12 stable cells were maintained in 100 µg/ml hygromycin in standard medium consisting of DMEM with 100 U/ml penicillin/streptomycin, 2 mM L-glutamine, 10% heat-inactivated horse serum, 5% FBS and 200 ug/ml G418 at 37° C., 5% CO2. The cells were seeded at 2×10^5 per well in 12-well plates and were induced expression of mHtt-74Q with 200 ng/ml doxycycline for 24 h. The expression of transgenes was switched off by removing doxycycline from the medium. […] They were either fixed with 1% paraformaldehyde for 20 mins for FACS analysis (BD Biosciences) of EGFP fluorescence of mHtt-74Q followed by analysis of mean fluorescence intensity of 10,000 events by Cellquest software (BD Biosciences) or processed for real time PCR analysis. […] The samples were mounted and analyzed using a fluorescence microscope (Olympus IX-70 and POT2, USA) with excitation wave of 335 nm and emission of 525 nm. The intensity of the color staining reflected the level of autophagic activity, which was measured with an Image-Pro Plus Analysis system (Media Cybernetics, Bethesda, USA). To quantify MDC punctae, at least 4 random fields were imaged and the average number of punctae area per cell was calculated. […]
A general note: In western blotting, separated proteins are transferred to a membrane and probed.

Assay [2] relates to mHtt74Q-expressing PC12 cell. The experiment in a line: mHtt-74Q aggregation in HD cell model by FACS analysis of EGFP fluorescence. In kind it is cell-based. As to the method: Mammalian expression vectors comprising EGFP (pEGFP-C1, Clontech) fused at its C terminus with an HD gene exon 1 fragment with 74 polyglutamine repeats (mHtt-74Q) was a gift from Dr. David C. Rubinsztein's laboratory. The PC12 stable cells were maintained in 100 µg/ml hygromycin in standard medium consisting of DMEM with 100 U/ml penicillin/streptomycin, 2 mM L-glutamine, 10% heat-inactivated horse serum, 5% FBS and 200 ug/ml G418 at 37° C., 5% CO2. The cells were seeded at 2×10^5 per well in 12-well plates and were induced expression of mHtt-74Q with 200 ng/ml doxycycline for 24 h. The expression of transgenes was switched off by removing doxycycline from the medium. […] They were either fixed with 1% paraformaldehyde for 20 mins for FACS analysis (BD Biosciences) of EGFP fluorescence of mHtt-74Q followed by analysis of mean fluorescence intensity of 10,000 events by Cellquest software (BD Biosciences) or processed for real time PCR analysis. […] The samples were mounted and analyzed using a fluorescence microscope (Olympus IX-70 and POT2, USA) with excitation wave of 335 nm and emission of 525 nm. The intensity of the color staining reflected the level of autophagic activity, which was measured with an Image-Pro Plus Analysis system (Media Cybernetics, Bethesda, USA). To quantify MDC punctae, at least 4 random fields were imaged and the average number of punctae area per cell was calculated.
For orientation: In flow cytometry, cells or beads pass a laser one at a time.

With Ganoderic acid C2, in the assay with PC12 cells, the neurite outgrowth activity result was “particularly marked”. In the assay with NGF, the “NGF mRNA expression” value is “particularly marked”.

B1: NGF: Nerve growth factor; murine NGF (Promega) used as positive control (protein, UniProt P01139 122-241, looked up)
Beta-nerve growth factor: SSTHPVFHMGEFSVCDSVSVWVGDKTTATDIKGKEVTVLAEVNINNSVFRQYFFETKCRASNPVESGCRGIDSKHWNSYCTTTHTFVKALTTDEKQAAWRFIRIDTACVCVLSRKATRRG
modifications: Beta-nerve growth factor
notes: Nerve growth factor; murine NGF (Promega) used as positive control
As to B1, in assay [1], the MDC intensity entry is listed as “enhanced MDC stain” and the “autophagic activity (MDC staining, LC3-II western blot)” value is listed as “up-regulated”. The mHtt-74Q accumulation entry in assay [2] (HD cell model, FACS analysis) was “reduction in mHtt-74Q accumulation”. For the same molecule, the “fluorescence distribution of cells expressing mHtt-74Q (aggregates)” value in assay [2] (NGF 50 ng/ml) was “reduced aggregates”.

Source of the values: patent US20140147464A1, “METHOD AND COMPOSITION FOR INDUCING AUTOPHAGY” (NATIONAL YANG-MING UNIVERSITY, priority 2012, published 2014).
